The results in this text go back to patent US20130347134A1 (published 2013).

Sequences and labels used below:
B1: recombinant wild-type murine VWF-A1 protein, His-tagged (amino acids 1233 to 1471, pQE9), Examples 1-2 (ligand)
chain: TCEACQEPGGLVAPPTDAPVSSTTPYVEDTPEPPLHNFYCSKLLDLVFLLDGSSMLSEAEFEVLKAFVVGMMERLHISQKRIRVAVVEYHDGSRAYLELKARKRPSELRRITSQIKYTGSQVASTSEVLKYTLFQIFGKIDRPEASHITLLLTASQEPPRMARNLVRYVQGLKKKKVIVIPVGIGPHASLKQIRLIEKQAPENKAFLLSGVDELEQRRDEIVSYLCDLAPEAPAPTQPP
notes: Disulfide C1272-C1458; also called mouse VWF-A1; M VWF-A1; not shown: 10 vector-derived N-terminal amino acids including 6xHis (pQE9)
B2: recombinant murine VWF-A1 with histidine for arginine at position 1326 (Example 1) (ligand)
chain: B1 chain with R94H
notes: also called mutated murine protein; not shown: 10 vector-derived N-terminal amino acids including 6xHis (pQE9)
B3: recombinant murine VWF-A1 containing the type 2B mutation I1309V (1309I>V) (ligand)
chain: B1 chain with I77V
notes: not shown: 10 vector-derived N-terminal amino acids including 6xHis (pQE9)
B4: recombinant human VWF-A1 containing 1309I>V and 1326H>R (ligand)
chain: QEPGGLVVPPTDAPVSPTTLYVEDISEPPLHDFYCSRLLDLVFLLDGSSRLSEAEFEVLKAFVVDMMERLRVSQKWVRVAVVEYHDGSRAYIGLKDRKRPSELRRIASQVKYAGSQVASTSEVLKYTLFQIFSKIDRPEASRIALLLMASQEPQRMSRNFVRYVQGLKKKKVIVIPVGIGPHANLKQIRLIEKQAPENKAFVLSSVDELEQQRDEIVSYLCDLAPEAPPPTLPPH
B5: recombinant human VWF-A1 containing 1309I>V and the type 2M mutation 1324G>S (ligand)
chain: B4 chain with G87S, R89H
B6: murine platelet glycoprotein Ib alpha (GPIb α) on mouse platelets (receptor, UniProt O35930 17-734, looked up)
chain: QHTCSISKVTSLLEVNCENKKLTALPADLPADTGILHLGENQLGTFSTASLVHFTHLTYLYLDRCELTSLQTNGKLIKLENLDLSHNNLKSLPSLGWALPALTTLDVSFNKLGSLSPGVLDGLSQLQELYLQNNDLKSLPPGLLLPTTKLKKLNLANNKLRELPSGLLDGLEDLDTLYLQRNWLRTIPKGFFGTLLLPFVFLHANSWYCDCEILYFRHWLQENANNVYLWKQGVDVKDTTPNVASVRCANLDNAPVYSYPGKGCPTSSGDTDYDDYDDIPDVPATRTEVKFSTNTKVHTTHWSLLAAAPSTSQDSQMISLPPTHKPTKKQSTFIHTQSPGFTTLPETMESNPTFYSLKLNTVLIPSPTTLEPTSTQATPEPNIQPMLTTSTLTTPEHSTTPVPTTTILTTPEHSTIPVPTTAILTTPKPSTIPVPTTATLTTLEPSTTPVPTTATLTTPEPSTTLVPTTATLTTPEHSTTPVPTTATLTTPEHSTTPVPTTATLTTPEPSTTLTNLVSTISPVLTTTLTTPESTPIETILEQFFTTELTLLPTLESTTTIIPEQNSFLNLPEVALVSSDTSESSPFLNSDFCCFLPLGFYVLGLLWLLFASVVLILLLTWTWHVTPHSLDMEQSAALATSTHTTSLEVQRARQVTMPRAWLLFLQGSLPTFRSSLFLWVRPNGRVGPLVAGRRPSALSQGRGQDLLGTVGIRYSGHSL
notes: whole, on cells; Native receptor on mouse platelets or whole blood; also called murine GPIb α; mGPIb-α
B7: recombinant murine rVWF-A1 1326R>H (residues 1238 to 1471), Example 3 (ligand)
chain: QEPGGLVAPPTDAPVSSTTPYVEDTPEPPLHNFYCSKLLDLVFLLDGSSMLSEAEFEVLKAFVVGMMERLHISQKRIRVAVVEYHDGSHAYLELKARKRPSELRRITSQIKYTGSQVASTSEVLKYTLFQIFGKIDRPEASHITLLLTASQEPPRMARNLVRYVQGLKKKKVIVIPVGIGPHASLKQIRLIEKQAPENKAFLLSGVDELEQRRDEIVSYLCDLAPEAPAPTQPP

Numbering of substitutions follows the chain as printed. Names may count otherwise.

In experiment [1] the target is B6. Put plainly: transient tethers of VWF-A1-coated beads on surface-immobilized murine platelets; shear stress 3.0 dyn cm-2; R2 0.98. The method, then: (§1) The force acting on the i tether bond was calculated from force balance equations and koff plotted as a function of these forces. […] Because these platelets cannot activate, the kinetics should be reflective of GPIb α in the resting state.
(§2) This antibody was made by immunizing Fischer 344 rats (3-4 months old) with recombinant WT protein. […] Spleens from animals with the highest antibody titers were harvested and splenocytes fused with Sp2/0 mouse myeloma cells (Kohler, et al., 1975).

The target of experiment [2] is B6. Put plainly: transient tethers of VWF-A1-coated beads on surface-immobilized murine platelets; shear stress 2.0 dyn cm-2; R2 0.95. The method, then:
as §1, §2

In experiment [3] the target is T1, human platelet glycoprotein Ib alpha (GPIb α) on human platelets (human, UniProt P07359 17-652).
T1 construct: whole, on cells; Native receptor on washed platelets or whole blood; also called GPIb alpha; hGPIb-α
Put plainly: human platelets (5x10^7/ml) perfused over coverslips coated with VWF-A1 (100 µg/ml), parallel plate flow chamber, 800 s-1. As to the method:
(§3) The protein was subsequently used in a series of in vitro flow chamber assays to assess function. […] After 5 minutes of continuous flow, adherent platelets were quantified.

Experiment [4] has as its target B6. Briefly: transient tethers of VWF-A1-coated beads on surface-immobilized murine platelets; shear stress 0.5 dyn cm-2; R2 0.96. As to the method:
as §1, §2

Experiment [5] concerns the target B6. Briefly: platelet translocation on coated protein, wall shear rate 800 s^-1. The method, then:
as §3
(§4) Subsequently, the ability of murine and human platelets to interact with this mutant protein substrate was evaluated at a wall shear rate of 800 s⁻¹.

Experiment [6] has as its target T1, human platelet glycoprotein Ib alpha …. Put plainly: human platelets perfused over immobilized mutant VWF-A1, wall shear rate 800 s-1.
Experiment [7] concerns the target B6. Put plainly: platelet adhesion to coated protein, wall shear rate 800 s^-1. As to the method: as §3, §4
Experiment [8] has as its target B6. Put plainly: transient tethers of VWF-A1-coated beads on surface-immobilized murine platelets; shear stress 2.0 dyn cm-2; R2 0.98. The method, then:
as §1, §2

Experiment [9] addresses B6. Briefly: transient tethers of VWF-A1-coated beads on surface-immobilized murine platelets; shear stress 1.0 dyn cm-2; R2 0.95. The method, then:
as §1, §2

In experiment [10] the target is T1, human platelet glycoprotein Ib alpha …. Briefly: interaction times of VWF-A1-coated beads on surface-immobilized platelets, wall shear stress 1 dyn cm^-2; 1309I>V + 1326H>R double mutant; 1 dyn cm^-2 wall shear stress. The method, then: (§5) The duration of these interactions are measured by recording images from a Nikon X60 DIC objective (oil immersion) viewed at a frame rate of 235 fps (Speed Vision Technologies, San Diego, Calif.) and subjected to wall shear stresses (WSS) ranging from 0.5 to 3.0 dyn cm⁻². […] The force acting on the i tether bond was calculated from force balance equations and koff plotted as a function of these forces. […] Because these platelets cannot activate, the kinetics should be reflective of GPIb α in the resting state.

The target is the same in experiment [11]. Briefly: interaction times of VWF-A1-coated beads on surface-immobilized platelets, wall shear stress 1 dyn cm^-2. The method, then: as §5
Experiment [12] has the same target. Briefly: human platelet attachment in flow to human VWF-A1 as a function of wall shear rate.
Experiment [13] addresses T2, murine plasma von Willebrand factor (VWF), wild type (mouse, UniProt Q8CIZ8 764-2813).
T2 construct: Plasma-derived multimeric mouse VWF; also called mouse VWF; murine VWF
Briefly: mouse whole blood perfused 4 min over surface-immobilized plasma VWF, 1600 s-1. The method, then: Ex vivo platelet adhesion studies. Experiments were performed in a parallel-plate flow chamber as previously described (Offermanns, S., et al., 2006). […] Subsequently, the plate was washed and non-specific interactions blocked by the addition of TBS containing 3% BSA, pH 7.4 (1 hour, 37° C.). Human or murine plasma obtained from heparinized whole blood was added and the plates placed at 37° C. for an additional 2 hours. […] The number of platelets attached per unit area (0.07 mm²) and translocation velocities were determined by off-line analysis (Image-Pro Plus, Media Cybernetics). For GPIb α inhibition studies, the function-blocking mAb 6D1 (20 μg/ml) or mAb SZ2 (20 μg/ml; Beckman Coulter, Brea, Calif.) was added to anticoagulated human blood for 30 minutes prior to use. Experiments were performed in triplicate on two separate days. An ELISA was used to ensure equivalent coating concentration of plasma and recombinant proteins (Denis, C. et al., 1998).

Experiment [14] concerns the target T3, mouse plasma VWF containing the majority of the human A1 domain (amino acids 1240P through 1481G of human VWF) (mouse VWF with human A1 domain, UniProt Q8CIZ8 764-2813, limits assumed).
T3 construct: Plasma VWF from homozygous VWF-HA1 mice; also called VWF-HA1; VWF HA1
Put plainly: parallel-plate flow system: WT mouse blood infused over surface-immobilized plasma VWF.

Experiment [15] has as its target T4, murine plasma VWF containing the 1326R>H mutation (VWF^1326R>H) (mouse, UniProt Q8CIZ8 764-2813).
T4 construct: also called R1326H mutant mouse VWF; mutant murine VWF
Put plainly: statement in Example 1; binding reduced.

Experiment [16] addresses T1, human platelet glycoprotein Ib alpha …. Put plainly: parallel-plate flow chamber: human whole blood perfused over the surface-immobilized recombinant A1 protein, shear rate 1600 s^-1, accumulated platelets counted.

T4 sequence (Q8CIZ8 other isoform, or with tags, fused parts or gaps limits assumed): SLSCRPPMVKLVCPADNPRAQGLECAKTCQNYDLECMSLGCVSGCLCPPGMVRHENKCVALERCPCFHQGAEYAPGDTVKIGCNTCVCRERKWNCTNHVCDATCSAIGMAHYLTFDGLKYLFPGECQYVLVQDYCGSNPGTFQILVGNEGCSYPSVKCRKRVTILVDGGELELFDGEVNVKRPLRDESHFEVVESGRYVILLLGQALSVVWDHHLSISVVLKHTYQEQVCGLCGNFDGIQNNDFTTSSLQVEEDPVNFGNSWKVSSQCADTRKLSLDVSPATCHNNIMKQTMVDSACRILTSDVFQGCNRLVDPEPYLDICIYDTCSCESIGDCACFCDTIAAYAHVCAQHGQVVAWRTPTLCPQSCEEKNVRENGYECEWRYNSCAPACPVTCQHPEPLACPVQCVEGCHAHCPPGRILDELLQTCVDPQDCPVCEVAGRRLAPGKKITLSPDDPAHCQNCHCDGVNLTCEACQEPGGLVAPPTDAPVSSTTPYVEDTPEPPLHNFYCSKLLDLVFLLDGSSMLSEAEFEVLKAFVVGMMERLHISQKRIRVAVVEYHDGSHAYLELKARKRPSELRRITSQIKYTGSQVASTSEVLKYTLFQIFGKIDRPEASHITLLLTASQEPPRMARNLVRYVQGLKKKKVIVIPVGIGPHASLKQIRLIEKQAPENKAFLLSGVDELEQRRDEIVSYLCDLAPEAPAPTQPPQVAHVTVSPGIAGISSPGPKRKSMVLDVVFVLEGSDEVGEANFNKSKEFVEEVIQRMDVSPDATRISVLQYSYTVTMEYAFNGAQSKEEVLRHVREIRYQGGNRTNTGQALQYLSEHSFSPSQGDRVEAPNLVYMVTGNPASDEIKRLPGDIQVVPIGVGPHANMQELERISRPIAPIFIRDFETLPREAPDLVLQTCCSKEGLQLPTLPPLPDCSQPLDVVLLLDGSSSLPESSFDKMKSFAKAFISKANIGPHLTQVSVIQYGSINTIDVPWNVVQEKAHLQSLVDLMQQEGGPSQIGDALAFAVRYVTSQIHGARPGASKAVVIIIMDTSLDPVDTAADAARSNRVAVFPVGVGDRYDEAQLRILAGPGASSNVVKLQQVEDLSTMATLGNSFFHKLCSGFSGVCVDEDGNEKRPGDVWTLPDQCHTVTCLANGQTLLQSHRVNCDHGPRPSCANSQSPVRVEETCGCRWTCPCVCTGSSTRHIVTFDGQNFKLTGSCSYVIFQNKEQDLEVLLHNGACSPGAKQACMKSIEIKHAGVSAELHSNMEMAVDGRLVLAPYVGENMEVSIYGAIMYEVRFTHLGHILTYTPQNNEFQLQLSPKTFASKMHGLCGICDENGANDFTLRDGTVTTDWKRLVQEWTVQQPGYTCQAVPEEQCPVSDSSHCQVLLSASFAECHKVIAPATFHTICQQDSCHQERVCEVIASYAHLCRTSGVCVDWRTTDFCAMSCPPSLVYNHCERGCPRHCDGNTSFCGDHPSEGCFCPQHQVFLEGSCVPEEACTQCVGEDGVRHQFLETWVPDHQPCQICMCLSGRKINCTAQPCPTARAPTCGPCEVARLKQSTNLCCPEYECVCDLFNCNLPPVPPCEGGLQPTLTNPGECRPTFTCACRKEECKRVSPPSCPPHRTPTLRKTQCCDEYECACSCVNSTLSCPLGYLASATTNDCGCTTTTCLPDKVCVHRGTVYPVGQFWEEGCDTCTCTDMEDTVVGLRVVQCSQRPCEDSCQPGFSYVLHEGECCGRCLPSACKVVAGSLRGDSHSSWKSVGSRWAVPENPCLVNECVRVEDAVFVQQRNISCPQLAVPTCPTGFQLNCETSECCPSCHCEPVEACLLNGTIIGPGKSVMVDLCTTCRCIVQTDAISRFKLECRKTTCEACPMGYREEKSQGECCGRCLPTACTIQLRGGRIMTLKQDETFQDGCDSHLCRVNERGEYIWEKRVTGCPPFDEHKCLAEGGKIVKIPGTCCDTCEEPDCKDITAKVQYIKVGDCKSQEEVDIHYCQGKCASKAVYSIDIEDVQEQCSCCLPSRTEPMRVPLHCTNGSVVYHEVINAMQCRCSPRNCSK
T3 sequence (Q8CIZ8 other isoform, or with tags, fused parts or gaps limits assumed): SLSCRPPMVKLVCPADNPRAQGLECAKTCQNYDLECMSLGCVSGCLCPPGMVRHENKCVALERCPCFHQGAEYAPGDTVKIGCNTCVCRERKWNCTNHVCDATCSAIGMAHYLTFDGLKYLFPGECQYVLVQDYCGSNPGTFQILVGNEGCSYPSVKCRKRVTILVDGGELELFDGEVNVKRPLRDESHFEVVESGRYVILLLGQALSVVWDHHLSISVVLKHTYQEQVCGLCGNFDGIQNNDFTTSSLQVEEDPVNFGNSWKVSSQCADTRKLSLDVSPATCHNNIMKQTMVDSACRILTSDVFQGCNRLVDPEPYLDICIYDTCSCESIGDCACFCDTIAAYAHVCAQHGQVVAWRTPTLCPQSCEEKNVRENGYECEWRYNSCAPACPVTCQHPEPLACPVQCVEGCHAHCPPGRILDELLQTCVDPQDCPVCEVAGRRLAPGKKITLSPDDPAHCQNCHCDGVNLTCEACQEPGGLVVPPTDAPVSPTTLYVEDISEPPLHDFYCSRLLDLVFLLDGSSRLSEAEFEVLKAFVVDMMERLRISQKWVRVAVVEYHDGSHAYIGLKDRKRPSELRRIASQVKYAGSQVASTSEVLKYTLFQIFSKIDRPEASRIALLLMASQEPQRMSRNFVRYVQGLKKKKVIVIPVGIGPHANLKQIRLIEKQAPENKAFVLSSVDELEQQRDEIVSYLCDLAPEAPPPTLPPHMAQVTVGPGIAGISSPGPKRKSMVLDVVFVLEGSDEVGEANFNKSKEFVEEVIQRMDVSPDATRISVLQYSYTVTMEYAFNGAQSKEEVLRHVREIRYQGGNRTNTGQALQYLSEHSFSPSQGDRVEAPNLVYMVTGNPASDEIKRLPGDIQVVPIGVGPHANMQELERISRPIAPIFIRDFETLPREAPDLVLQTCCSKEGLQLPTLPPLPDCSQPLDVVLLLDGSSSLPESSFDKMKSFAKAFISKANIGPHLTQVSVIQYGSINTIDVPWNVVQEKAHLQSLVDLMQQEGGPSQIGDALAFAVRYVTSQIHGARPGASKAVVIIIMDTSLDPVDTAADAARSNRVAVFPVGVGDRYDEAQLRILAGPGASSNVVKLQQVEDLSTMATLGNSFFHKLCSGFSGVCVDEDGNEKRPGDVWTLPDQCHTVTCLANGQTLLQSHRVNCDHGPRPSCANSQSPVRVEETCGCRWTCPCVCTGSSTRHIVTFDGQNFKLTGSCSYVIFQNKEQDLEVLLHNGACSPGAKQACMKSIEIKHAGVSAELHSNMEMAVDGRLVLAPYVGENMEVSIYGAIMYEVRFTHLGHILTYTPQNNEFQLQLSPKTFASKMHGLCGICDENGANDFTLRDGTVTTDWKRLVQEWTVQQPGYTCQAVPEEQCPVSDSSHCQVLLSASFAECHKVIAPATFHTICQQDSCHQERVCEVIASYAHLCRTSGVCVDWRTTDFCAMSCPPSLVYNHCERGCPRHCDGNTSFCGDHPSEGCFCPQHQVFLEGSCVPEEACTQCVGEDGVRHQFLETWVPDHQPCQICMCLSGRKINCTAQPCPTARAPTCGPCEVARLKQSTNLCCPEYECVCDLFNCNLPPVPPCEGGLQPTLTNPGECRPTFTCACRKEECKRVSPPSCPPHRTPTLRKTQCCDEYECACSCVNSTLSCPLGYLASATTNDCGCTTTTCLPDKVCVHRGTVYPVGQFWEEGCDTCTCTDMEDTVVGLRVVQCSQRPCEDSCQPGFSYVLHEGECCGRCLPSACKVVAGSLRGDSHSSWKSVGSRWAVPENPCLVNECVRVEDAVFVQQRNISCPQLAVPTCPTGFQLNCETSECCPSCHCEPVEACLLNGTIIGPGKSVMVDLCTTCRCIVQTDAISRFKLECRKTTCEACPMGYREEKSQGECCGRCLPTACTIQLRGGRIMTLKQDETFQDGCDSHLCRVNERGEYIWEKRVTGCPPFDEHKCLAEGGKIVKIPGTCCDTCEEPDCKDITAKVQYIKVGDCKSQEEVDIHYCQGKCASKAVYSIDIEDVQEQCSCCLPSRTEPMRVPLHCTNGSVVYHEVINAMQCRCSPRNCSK

Regarding B1, the koff (as a rule, the rate constant with which the complex falls apart) in [1] turned out to be 9.9 s⁻¹; in experiment [2], 8.4 s⁻¹; in experiment [4], 5.1 s⁻¹. For the same molecule, in [3], the binding result is reported as “binds”.
As to B2, in [5], the “fold increase in translocation velocity versus WT mouse protein” value is ~7 fold. The binding result in experiment [6] is “binds”. Moreover, in [7], the “fold reduction in platelet adhesion versus WT mouse protein” value was ~5 fold.
B3: the dissociation rate constant (koff) in experiment [8] came out at 1.6 s⁻¹; in experiment [9], 0.9 s⁻¹; in experiment [4], 0.7 s⁻¹.
Regarding B4, the koff in experiment [10] came to 8.5 s⁻¹. Besides, the “fold reduction in koff versus the single 1326H>R mutant” value in [11] came to 2 fold.
As to B5, the binding result in experiment [12] was “no binding”.
As for B6, the binding result in [13] was “binds”; in [14], “no binding”; in experiment [15], “binds”.
For B7, in [16], the binding result was “binds”.
